Data taken from patent publication EP2500357A2 (Abbott Laboratories, dated 2012).
Like-named read-outs stand apart in the source and are kept apart here.

Assays:
Experiment in all cases: cell-based or functional assay
recombinant human IL-1α [1] = biological target: T1, recombinant human IL-1α (human, UniProt P01583 113-271)
T1 sequence (looked up): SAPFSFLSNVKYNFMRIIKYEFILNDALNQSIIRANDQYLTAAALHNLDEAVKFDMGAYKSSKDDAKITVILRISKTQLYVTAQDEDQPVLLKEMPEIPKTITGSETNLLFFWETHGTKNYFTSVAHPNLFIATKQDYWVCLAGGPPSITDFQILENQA

recombinant human IL-1β [2] = biological target: T2, recombinant human IL-1β (human, UniProt P01584 117-269)
recombinant human IL-1β [3] = biological target: T2, recombinant human IL-1β; remark: listed apart in the source
recombinant human IL-1α [4] = biological target: T1, recombinant human IL-1α; remark: listed apart in the source
recombinant human IL-1α [5] = biological target: T1, recombinant human IL-1α; remark: listed apart in the source

B1: hIL-1a/bDVD3a-Ig (bispecific antibody, human IgG1, kappa)
heavy: not shown
light: DIVMTQSQRFMSTSVGDRVSVTCKASQNVGTNIAWYQQKPGQSPRALIYSASYRYSGVPDRFTGSGSGTDFTLTISNVQSVDLAEYFCQQYTRYPLTFGGGTKLEIKRTVAAPETTVTQSPASLSMAIGEKVTIRCITSTDIDVDMNWYQQKPGEPPKLLISQGNTLRPGVPSRFSSSGSGTDFVFIIENMLSEDVADYYCLQSDNLPLTFGAGTKLELKRTVAAPSVFIFPPSDEQLKSGTASVVCLLNNFYPREAKVQWKVDNALQSGNSQESVTEQDSKDSTYSLSSTLTLSKADYEKHKVYACEVTHQGLSSPVTKSFNRGEC
For B1, the “Potency (IC50), MRC-5 bioassay” value (recombinant human IL-1α [1]) was 0.75 nM.

B2: hIL-1a/bDVD3b-Ig (bispecific antibody, human IgG1, kappa)
heavy: not shown
light: ETTVTQSPASLSMAIGEKVTIRCITSTDIDVDMNWYQQKPGEPPKLLISQGNTLRPGVPSRFSSSGSGTDFVFIIENMLSEDVADYYCLQSDNLPLTFGAGTKLELKRTVAAPDIVMTQSQRFMSTSVGDRVSVTCKASQNVGTNIAWYQQKPGQSPRALIYSASYRYSGVPDRFTGSGSGTDFTLTISNVQSVDLAEYFCQQYTRYPLTFGGGTKLEIKRTVAAPSVFIFPPSDEQLKSGTASVVCLLNNFYPREAKVQWKVDNALQSGNSQESVTEQDSKDSTYSLSSTLTLSKADYEKHKVYACEVTHQGLSSPVTKSFNRGEC
With B2 the “Potency (IC50), MRC-5 bioassay” value (recombinant human IL-1α [1]) was 0.7 nM.

B3: chimeric 13F5.G5 Ab (13F5.G5-VH-Cγ1 / 13F5.G5-VL-Cκ) (antibody, V domains shown)
VH: QVQLQQSGAELVRPGSSVKISCKASGYAFSSYWMNWVKQRPGQGLEWIGQIYPGDGDTNYNGKFKGKATLTADKSSSTSYMQLSGLTSEDSAMYFCVRFPTGNDYYAMDYWGQGTSVTVSS
VL: NIVLTQSPASLAVSLGQRATISCRASESVDSYGNSYMHWYQQKPGQPPKLLIYLASNLESGVPARFSGSGSRTDFTLTIDPVEADDAATYYCQQNNEDPFTFGSGTKLEIKR
With B3 the “Potency (IC50), MRC-5 bioassay” value (recombinant human IL-1β [2]) was 0.53 nM.

B4: hIL-1a/bDVD4b-Ig (bispecific antibody, human IgG1, kappa)
heavy: not shown
light: ETTVTQSPASLSMAIGEKVTIRCITSTDIDVDMNWYQQKPGEPPKLLISQGNTLRPGVPSRFSSSGSGTDFVFIIENMLSEDVADYYCLQSDNLPLTFGAGTKLELKRTVAAPSVFIFPPDIVMTQSQRFMSTSVGDRVSVTCKASQNVGTNIAWYQQKPGQSPRALIYSASYRYSGVPDRFTGSGSGTDFTLTISNVQSVDLAEYFCQQYTRYPLTFGGGTKLEIKRTVAAPSVFIFPPSDEQLKSGTASVVCLLNNFYPREAKVQWKVDNALQSGNSQESVTEQDSKDSTYSLSSTLTLSKADYEKHKVYACEVTHQGLSSPVTKSFNRGEC
For B4, the “Potency (IC50), MRC-5 bioassay” value (recombinant human IL-1α [1]) was 0.35 nM and the “Potency (IC50), MRC-5 bioassay” value (recombinant human IL-1β [3]) was 0.5 nM.

B5: hIL-1a/bDVD5b-Ig (bispecific antibody, human IgG1, kappa)
heavy: not shown
light: QIVLTQSPAIMSASPGEKVTITCSASSSVSYMHWFQQKPGASPKLWIYSTSNLASGVPARFSGSGSGTSYSLTVSRMEAEDAATYYCQQRSTYPYTFGGGTKLEIKRTVAAPQIVLTQSPALMSASPGEKVTMTCSASSSVNYMYWYQQKPRSSPKPWIYLTSNLASGVPARFSGSGSGTSYSLTISSMEAEDAATYYCQQWNSNPYTFGGGTKLEMKRTVAAPSVFIFPPSDEQLKSGTASVVCLLNNFYPREAKVQWKVDNALQSGNSQESVTEQDSKDSTYSLSSTLTLSKADYEKHKVYACEVTHQGLSSPVTKSFNRGEC
B5 was tested, and the “Potency (IC50), MRC-5 bioassay” value (recombinant human IL-1α [1]) was 3.3 nM and the “Potency (IC50), MRC-5 bioassay” value (recombinant human IL-1β [3]) was 0.25 nM.

B6: murine anti-hIL-1α mAb 6H3.1A4.3E11 (antibody, V domains shown)
VH: QVQLQQPGAELVRPGASVKLSCKASGYTFTTYWMNWVKQRPEQGLEWIGRIDPYDSETLYSQKFKDTAILTVDKSSSTAYMQLSSLTSEDSAVYYCARYGFDYWGQGTTLTVSS
VL: QIVLTQSPALMSASPGEKVTMTCSASSSVNYMYWYQQKPRSSPKPWIYLTSNLASGVPARFSGSGSGTSYSLTISSMEAEDAATYYCQQWNSNPYTFGGGTKLEMKR
With B6 the “IC50, inhibition of IL-8 production by MRC-5 cells” value (recombinant human IL-1α [4]) was 0.24 nM and the “IC50, MRC-5 bioassay” value (recombinant human IL-1α [1]) was 0.24 nM.

B7: chimeric 3D12.E3 Ab (3D12.E3-VH-hCγ1 / 3D12.E3-VL-hCk) (antibody, V domains shown)
VH: QIQLVQSGPELKKPGETVKISCKASGYTFRNYGMNWVKQAPGKDLKRMAWINTYTGESTYADDFKGRFAFSLETSASTAYLQINNLKNEDTATYFCARGIYYYGSSYAMDYWGQGTSVTVSS
VL: NIQMTQTTSSLSASLGDRVTISCRASQDISNCLNWYQQKPDGTVKLLIYYTSRLHSGVPSRFSGSGSGTDYSLTISNLEQEDIATYFCQQGKTLPYAFGGGTKLEINR
B7 was tested, and the “Potency (IC50), MRC-5 bioassay” value (recombinant human IL-1α [5]) was 0.7 nM.

B8: hIL-1a/bDVD4a-Ig (bispecific antibody, human IgG1, kappa)
heavy: not shown
light: DIVMTQSQRFMSTSVGDRVSVTCKASQNVGTNIAWYQQKPGQSPRALIYSASYRYSGVPDRFTGSGSGTDFTLTISNVQSVDLAEYFCQQYTRYPLTFGGGTKLEIKRTVAAPSVFIFPPETTVTQSPASLSMAIGEKVTIRCITSTDIDVDMNWYQQKPGEPPKLLISQGNTLRPGVPSRFSSSGSGTDFVFIIENMLSEDVADYYCLQSDNLPLTFGAGTKLELKRTVAAPSVFIFPPSDEQLKSGTASVVCLLNNFYPREAKVQWKVDNALQSGNSQESVTEQDSKDSTYSLSSTLTLSKADYEKHKVYACEVTHQGLSSPVTKSFNRGEC
In the case of B8, the “Potency (IC50), MRC-5 bioassay” value (recombinant human IL-1α [1]) is reported as 0.35 nM and the “Potency (IC50), MRC-5 bioassay” value (recombinant human IL-1β [3]) is reported as 10 nM.

B9: murine anti-hIL-1α mAb 18F4.2C8 (antibody, V domains shown)
VH: EVQLQQSGAELVKPGASVKLSCTASGLNIKDTYMHWLKQRPEQGLEWIGRIDPANGNAKYDPRFLGKATITADTSSNTAYLQLSSLTSEDTAVYYCARGDGNFHFDYWGQGTTLTVSS
VL: DIVMTQSQRFMSTSVGDRVSVTCKASQNVGTNIAWYQQKPGQSPRALIYSASYRYSGVPDRFTGSGSGTDFTLTISNVQSVDLAEYFCQQYTRYPLTFGGGTKLEIKR
For B9, the “IC50, inhibition of IL-8 production by MRC-5 cells” value (recombinant human IL-1α [4]) was 0.089 nM and the “IC50, MRC-5 bioassay” value (recombinant human IL-1α [1]) was 0.33 nM.

B10: hIL-1a/bDVD5a-Ig (bispecific antibody, human IgG1, kappa)
heavy: not shown
light: QIVLTQSPALMSASPGEKVTMTCSASSSVNYMYWYQQKPRSSPKPWIYLTSNLASGVPARFSGSGSGTSYSLTISSMEAEDAATYYCQQWNSNPYTFGGGTKLEMKRTVAAPQIVLTQSPAIMSASPGEKVTITCSASSSVSYMHWFQQKPGASPKLWIYSTSNLASGVPARFSGSGSGTSYSLTVSRMEAEDAATYYCQQRSTYPYTFGGGTKLEIKRTVAAPSVFIFPPSDEQLKSGTASVVCLLNNFYPREAKVQWKVDNALQSGNSQESVTEQDSKDSTYSLSSTLTLSKADYEKHKVYACEVTHQGLSSPVTKSFNRGEC
B10 was tested, and the “Potency (IC50), MRC-5 bioassay” value (recombinant human IL-1α [1]) was 2.6 nM and the “Potency (IC50), MRC-5 bioassay” value (recombinant human IL-1β [3]) was 19 nM.

B11: hIL-1a/bDVD6b-Ig (bispecific antibody, human IgG1, kappa)
heavy: not shown
light: QIVLTQSPAIMSASPGEKVTITCSASSSVSYMHWFQQKPGASPKLWIYSTSNLASGVPARFSGSGSGTSYSLTVSRMEAEDAATYYCQQRSTYPYTFGGGTKLEIKRTVAAPSVFIFPPQIVLTQSPALMSASPGEKVTMTCSASSSVNYMYWYQQKPRSSPKPWIYLTSNLASGVPARFSGSGSGTSYSLTISSMEAEDAATYYCQQWNSNPYTFGGGTKLEMKRTVAAPSVFIFPPSDEQLKSGTASVVCLLNNFYPREAKVQWKVDNALQSGNSQESVTEQDSKDSTYSLSSTLTLSKADYEKHKVYACEVTHQGLSSPVTKSFNRGEC
B11 was tested, and the “Potency (IC50), MRC-5 bioassay” value (recombinant human IL-1α [1]) was 1 nM and the “Potency (IC50), MRC-5 bioassay” value (recombinant human IL-1β [3]) was 0.75 nM.

B12: hIL-1a/bDVD6a-Ig (bispecific antibody, human IgG1, kappa)
heavy: not shown
light: QIVLTQSPALMSASPGEKVTMTCSASSSVNYMYWYQQKPRSSPKPWIYLTSNLASGVPARFSGSGSGTSYSLTISSMEAEDAATYYCQQWNSNPYTFGGGTKLEMKRTVAAPSVFIFPPQIVLTQSPAIMSASPGEKVTITCSASSSVSYMHWFQQKPGASPKLWIYSTSNLASGVPARFSGSGSGTSYSLTVSRMEAEDAATYYCQQRSTYPYTFGGGTKLEIKRTVAAPSVFIFPPSDEQLKSGTASVVCLLNNFYPREAKVQWKVDNALQSGNSQESVTEQDSKDSTYSLSSTLTLSKADYEKHKVYACEVTHQGLSSPVTKSFNRGEC
With B12 the “Potency (IC50), MRC-5 bioassay” value (recombinant human IL-1α [1]) was 2.3 nM and the “Potency (IC50), MRC-5 bioassay” value (recombinant human IL-1β [3]) was 70 nM.
